Patent publication US20240287164A1, “ANTIBODIES SPECIFIC TO NELL2 AND METHODS OF USE” (BOARD OF REGENTS, THE UNIVERSITY OF TEXAS SYSTEM, priority 2021, published 2024)
Entries after “also recorded” stand apart in the source; their conditions may differ.

Experiments:
CD133^low population = test: Proliferation of sorted CD133low population (IncuCyte); format: cell-based, human; settings: FIG. 5A
Procedure: Cell proliferation and xenograft tumorigenicity assays. Anchorage-dependent cell proliferation was assessed by IncuCyte live-cell imaging system (Essen BioScience). The IncuCyte system monitors cell proliferation by analyzing the occupied area (% confluence) of cell images over time. At least four fields from four wells were assayed for each experimental condition. The cell seeding density was 2000 cells per well in a 96-well plate. For each assay, biological replicates were performed to confirm the reproducibility of results. Anchorage-independent cell proliferation was evaluated by soft agar colony formation assays. A-673 cells were infected with lentiviruses expressing shRNAs against NELL2 or scrambled shRNA and were selected with 2 μg/ml puromycin. Four days after infection, 4×10^3 cells were plated in soft agar. The soft agar cultures were composed of two layers; a base layer [4 ml in a 60-mm dish; DMEM/10% fetal bovine serum/0.6% noble agar (A5431, MilliporeSigma)/penicillin/streptomycin] and a cell layer (2 ml in a 60-mm dish; DMEM/10% fetal bovine serum/0.3% noble agar/penicillin/streptomycin). Colonies were grown for three weeks and counted. Colonies (>50 cells) were scored by randomly counting 10 fields per dish. Sphere formation assays were done (Dasgupta, A., et al. (2017) Oncotarget 8, 77292-77308) using ultra-low attachment 6-well plates (Corning: seeding density 1×10^4 cells/well) and DMEM/F-12 medium supplemented with B27, human recombinant epidermal growth factor (20 ng/ml), and basic fibroblast growth factor (20 ng/ml). For xenograft tumorigenicity assays, cells were subcutaneously injected into the flanks of SCID mice (2×10^6 cells/injection, five mice/group). Tumor growth was monitored weekly using a caliper. While it is not possible to predict the effect size, the sample size of five mice per group was chosen based on experience with xenograft experiments. Mice were randomly allocated to treatment groups. Blinding of the researcher measuring tumor size was employed.
Flow cytometry. […]

A-673 and EW8 cells = test: Proliferation of NELL2- or Robo3-silenced Ewing sarcoma cells (IncuCyte); format: cell-based, human; settings: A-673 cells transfected with NELL2 siRNAs, recombinant NELL2 250 ng/ml
Procedure: Transfection and viral infection. Calcium phosphate co-precipitation was used for transfection of 293T cells. Lentiviruses were prepared by transfection in 293T cells following System Biosciences' protocol, and the cells infected with lentiviruses were selected with 2 μg/mL puromycin for 48 hours. The target sequences for shRNAs are as follows: FLI1 C-terminus shRNA, […] (SEQ ID NO: 20); luciferase shRNA, […] (SEQ ID NO: 21); NELL2 shRNA-1, […] (SEQ ID NO: 22); and NELL2 shRNA-2, […] (SEQ ID NO: 23). The following siRNAs were used: human NELL2 siRNA SMARTpool (M-012185-00); Dharmacon), human Robo3 siRNA SMARTpool (M-026504-00; Dharmacon), human Robo3 siRNAs NM_022370 (SASI_Hs01_00099511, SASI_Hs01_00099512, SASI_Hs01_00099513, SASI_Hs01_00099514, SASI_Hs01_00099515 and SASI_Hs01_00099516; MilliporeSigma), human cdc42 siRNA SMARTpool (M-005057-01; Dharmacon), human CD133 siRNA SMARTpool (M-010630-01; Dharmacon), human srGAP1 siRNA SMARTpool (M-026974-00; Dharmacon), srGAP2 siRNA SMARTpool (M-021531-03; Dharmacon), human caveolin-1 siRNA SMARTpool (M-003467-01; Dharmacon), human GDF6 siRNA SMARTpool (M-0330055-01; Dharmacon), and Non-Targeting siRNA Pool #2 (D-0012Jun. 14, 2005; Dharmacon), siRNA transfection of cell lines was performed using Lipofectamine™ RNAiMAX Transfection Reagent (Thermo Fisher).
Cell proliferation and xenograft tumorigenicity assays. Anchorage-dependent cell proliferation was assessed by IncuCyte live-cell imaging system (Essen BioScience). The IncuCyte system monitors cell proliferation by analyzing the occupied area (% confluence) of cell images over time. At least four fields from four wells were assayed for each experimental condition. The cell seeding density was 2000 cells per well in a 96-well plate. […] Anchorage-independent cell proliferation was evaluated by soft agar colony formation assays. […] Colonies were grown for three weeks and counted. Colonies (>50 cells) were scored by randomly counting 10 fields per dish. […] Tumor growth was monitored weekly using a caliper. […]

BAF complexes [1] = test: Gel filtration chromatography of nuclear extract (BAF complex assembly); format: cell-based; settings: A-673 cells; four-hour treatment
Procedure: Gel filtration chromatography. Nuclear extract was prepared as described (Carey, M. F., et al. (2009) Dignam and Roeder nuclear extract preparation. Cold Spring Harbor protocols 2009, pdb prot5330). The extract (5 mg) was loaded onto HiPrep 16/60 Sephacryl S-400 HR column (GE Healthcare) equilibrated with a gel filtration buffer (150 mM NaCl, 20 mM Hepes-KOH, 10 mM KCl, 1 mM MgCl2, 1 mM EDTA, 1 mM EGTA, 1 mM DTT, pH 7.5). Proteins were eluted at 1 ml/min and 1-ml fractions were collected. Every fourth fraction was concentrated and analyzed by immunoblotting.

[2] = tested on: Robo3-FLAG on A-673 cell surface; test: Robo3-FLAG cell surface staining in NELL2-silenced cells; format: cell-based, human; settings: A-673 cells; FIG. 2D
Procedure: Immunofluorescence. Cells grown on coverslips were fixed with 4% paraformaldehyde for 15 minutes at room temperature, washed with PBS, and permeabilized with 0.2% pre-chilled Triton-X 100/PBS for 5 minutes. The samples were blocked with culture medium for one hour and incubated with the primary antibody for three hours followed by the secondary antibody for one hour. The following primary antibodies were used: rabbit polyclonal anti-NELL2 (NBP1-82527, Novus Biologicals); mouse monoclonal anti-FLAG M2 (F1804, MilliporeSigma); mouse monoclonal anti-CD133 AC133 (130-090-422, Miltenyi Biotec); rabbit polyclonal anti-FLI1 (ab15289, Abcam); and mouse monoclonal anti-CD99 (MS-1633-P0, Thermo Fisher Scientific). The following secondary antibodies were used: Alexa Fluor 488, goat anti-rabbit IgG (A11034, Thermo Fisher Scientific); Alexa Fluor 568, goat anti-rabbit IgG (A11036, Thermo Fisher Scientific); Alexa Fluor 488, goat anti-mouse IgM (A21042, Thermo Fisher Scientific); and Alexa Fluor 594, goat anti-mouse IgG (A11032, Thermo Fisher Scientific). Nuclei were stained with DAPI. DyLight™ 554 Phalloidin (13054, Cell Signaling Technologies) was used to visualize filopodia.

BAF complexes [3] = test: BAF subunit protein levels by immunoblotting in Ewing sarcoma cells; format: cell-based, human
Text: Immunoblotting. […] The following antibodies were used: rabbit polyclonal anti-FLI1 (ab15289, Abcam); mouse monoclonal anti-FLAG M2 (F1804, MilliporeSigma): rabbit monoclonal anti-NELL2 (ab181376, Abcam); goat polyclonal anti-PGK1 (sc-17943, Santa Cruz Biotechnology); rabbit polyclonal anti-Robo3 (LS-C345713, LSBio); goat polyclonal anti-Robo3 (PA5-18714, Thermo Fisher Scientific); mouse monoclonal anti-cdc42 (ACD03, Cytoskeleton); rabbit polyclonal anti-Rac1/2/3 (2465, Cell Signaling Technologies); rabbit polyclonal anti-Rho A (2117, Cell Signaling Technologies); goat polyclonal anti-BRG1 (A303-877A, Bethyl Laboratories); rabbit monoclonal anti-BRG1 (49360, Cell Signaling Technologies); rabbit polyclonal anti-BRM (A301-014A-T, Bethyl Laboratories); mouse monoclonal anti-ARID1A/BAF250) (sc-32761, Santa Cruz Biotechnology); rabbit polyclonal anti-BAF170 (A301-039A-T, Bethyl Laboratories); rabbit monoclonal anti-BAF155 (11956, Cell Signaling Technologies); rabbit polyclonal anti-BAF60B (A301-596A-T, Bethyl Laboratories); rabbit polyclonal anti-BAF57 (A300-810A-T, Bethyl Laboratories); rabbit polyclonal anti-BAF53A (A301-391A-T, Bethyl Laboratories); rabbit monoclonal anti-BAF47 (8745, Cell Signaling Technologies); rabbit polyclonal anti-BRD9 (A303-781A-T, Bethyl Laboratories); rabbit monoclonal anti-SS18 (21792, Cell Signaling Technologies); rabbit monoclonal anti-CD133 (64326, Cell Signaling Technologies); rabbit polyclonal anti-srGAP1 (A301-286A-T, Bethyl Laboratories); rabbit polyclonal anti-srGAP2 (GTX130797, GeneTex); mouse monoclonal anti-tubulin (DMIA, Thermo Fisher Scientific); rabbit polyclonal anti-β-actin (4967, Cell Signaling Technologies); mouse monoclonal anti-Rpb1 (2629, Cell Signaling Technologies); rabbit monoclonal anti-cdc6 (3387, Cell Signaling Technologies); rabbit monoclonal anti-caveolin-1 (3267, Cell Signaling Technologies); rabbit polyclonal anti-phospho-caveolin-1 (3251, Cell Signaling Technologies); rabbit monoclonal anti-Src (2123, Cell Signaling Technologies); rabbit monoclonal anti-phospho-Src Family (6943, Cell Signaling Technologies); and rabbit polyclonal anti-GDF6 (NBP1-91934, Novus Biologicals). The following HRP-conjugated secondary antibodies were used: goat anti-rabbit (7074) and goat anti-mouse (7076) (Cell Signaling Technologies); donkey anti-goat (A50)-201P, Bethyl Laboratories).

cdc42 and Rac = test: GST-PAKI pull-down of active cdc42 and Rac; format: cell-based, human; settings: FIG. 3D
Procedure: GST pull-down assays. The active form of cdc42, Rac, and Rho A was analyzed by pull-down of whole cell lysate with GST-PAKI (active cdc42 and Rac) and GST-RBD (active Rho A) followed by immunoblotting for cdc42, Rac, and Rho A as described (Ren, X. D., et al. (1999) EMBO J 18, 578-585).

B1: recombinant NELL2: purified recombinant NELL2 protein added to the culture medium (protein, UniProt Q99435 22-816, looked up)
Protein kinase C-binding …: LGVDPSLQIDVLTELELGESTTGVRQVPGLHNGTKAFLFQDTPRSIKASTATAEQFFQKLRNKHEFTILVTLKQTHLNSGVILSIHHLDHRYLELESSGHRNEVRLHYRSGSHRPHTEVFPYILADDKWHKLSLAISASHLILHIDCNKIYERVVEKPSTDLPLGTTFWLGQRNNAHGYFKGIMQDVQLLVMPQGFIAQCPDLNRTCPTCNDFHGLVQKIMELQDILAKTSAKLSRAEQRMNRLDQCYCERTCTMKGTTYREFESWIDGCKNCTCLNGTIQCETLICPNPDCPLKSALAYVDGKCCKECKSICQFQGRTYFEGERNTVYSSSGVCVLYECKDQTMKLVESSGCPALDCPESHQITLSHSCCKVCKGYDFCSERHNCMENSICRNLNDRAVCSCRDGFRALREDNAYCEDIDECAEGRHYCRENTMCVNTPGSFMCICKTGYIRIDDYSCTEHDECITNQHNCDENALCFNTVGGHNCVCKPGYTGNGTTCKAFCKDGCRNGGACIAANVCACPQGFTGPSCETDIDECSDGFVQCDSRANCINLPGWYHCECRDGYHDNGMFSPSGESCEDIDECGTGRHSCANDTICFNLDGGYDCRCPHGKNCTGDCIHDGKVKHNGQIWVLENDRCSVCSCQNGFVMCRRMVCDCENPTVDLFCCPECDPRLSSQCLHQNGETLYNSGDTWVQNCQQCRCLQGEVDCWPLPCPDVECEFSILPENECCPRCVTDPCQADTIRNDITKTCLDEMNVVRFTGSSWIKHGTECTLCQCKNGHICCSVDPQCLQEL
Q: With B1 as the molecule, how does the “Recombinant NELL2 concentration able to rescue the slow growth of the CD133low population” value (CD133^low population) read?
A: ≥ 250 ng/mL

Q: What about the “Slow growth of the CD133low population” value (CD133^low population) of the same molecule?
A: can be rescued; also recorded: rescues the slow growth

Q: What about the “Proliferation inhibition by NELL2 silencing, rescue by recombinant protein” value (A-673 and EW8 cells) of the same molecule?
A: rescues proliferation arrest; also recorded: completely rescued

Q: And the “Proliferation inhibition by NELL2 silencing, rescue by recombinant protein” value (A-673 and EW8 cells; listed as Recombinant NELL2)?
A: able to rescue the proliferation

Q: What about the “Size of the BAF complexes after NELL2 silencing” value (BAF complexes [1]) of the same molecule?
A: largely restored the size

Q: And the “Accumulation of Robo3-FLAG on the cell surface after NELL2 silencing” value [2]?
A: reversed

Q: What about the “BAF subunit levels in NELL2 siRNA-transfected cells” value (BAF complexes [3]; A-673 and EW8 cells, recombinant NELL2 250 ng/ml, FIG. 3J) of the same molecule?
A: restores the protein levels of BAF subunits; also recorded: rescued

Q: And the “CD133 and BAF subunit protein levels in the CD133low population” value (BAF complexes [3]; four or twenty-four hours, FIG. 5B)?
A: increases CD133 and BAF subunits; also recorded: increased CD133, BRG1, BAF250A, BAF155, and BAF47

Q: And the “BRG1, BAF155, and BAF47 levels after NELL2 silencing in the presence of dasatinib” value (BAF complexes [3]; recombinant NELL2 250 ng/ml, dasatinib present)?
A: rescued

Q: And the “Activation of cdc42 and Rac by NELL2 silencing” value (cdc42 and Rac; lane 1-3)?
A: abolished

Q: And the “Active cdc42 and active Rac in srGAP1- and srGAP2-silenced cells” value (cdc42 and Rac; lane 4-6)?
A: not affected
